Columns and labels:
Hfq;Crc [1] = molecular target: T1, Hfq;Crc (Pseudomonas aeruginosa PAO1;Pseudomonas …, UniProt Q9HUM0;Q51380 1-82;1-259, |); test: co-IP (anti-Hfq); RNA-dependent Crc capture; ES buffer: 10 mM Tris pH 8.0, 10 mM KCl, 40 mM NaCl, 1 mM MgCl2; MST + 0.05% Tween-20, room temperature; EMSA + 25 ng tRNA per 10 ul, 37 C 15 min (Fig 6D); NMR; settings: protein: recombinant;recombinant; tags: none stated;His6-tag (N-terminal) removed with HRV14-3C; chain copies: 6;1
Hfq = Hfq (Pseudomonas aeruginosa PAO1, UniProt Q9HUM0 1-82); test: MST; 30 nM labelled Hfq6, no Crc; ES buffer: 10 mM Tris pH 8.0, 10 mM KCl, 40 mM NaCl, 1 mM MgCl2; MST + 0.05% Tween-20, room temperature; EMSA + 25 ng tRNA per 10 ul, 37 C 15 min (Fig 6D); NMR; settings: protein: recombinant; tags: none stated; chain copies: 6; label: 5'-32P (EMSA); unlabelled (MST)
Hfq;Crc [2] = molecular target: T1, Hfq;Crc; test: MST; 30 nM labelled Hfq6, RNA titrated, 360 nM Crc; ES buffer: 10 mM Tris pH 8.0, 10 mM KCl, 40 mM NaCl, 1 mM MgCl2; MST + 0.05% Tween-20, room temperature; EMSA + 25 ng tRNA per 10 ul, 37 C 15 min (Fig 6D); NMR; settings: protein: recombinant;recombinant; tags: none stated;His6-tag (N-terminal) removed with HRV14-3C; chain copies: 6;1; label: 5'-32P (EMSA); unlabelled (MST)

Binder	binding result (Hfq;Crc [1])	Kd (Hfq) [nM]	Kd (Hfq;Crc [2]) [nM]
AAAAAAAAAAAAAAAAAAAAAAAAAAA (ssRNA) [poly(A)27]	binds		
AAAAAUAACAACAAGAGG (ssRNA) [amiE6ARN]		43.2 ± 2.3	33.9 ± 1.7

From publication PMC5815094, “Interplay between the catabolite repression control protein Crc, Hfq and RNA in Hfq-dependent translational regulation in Pseudomonas aeruginosa”
